Reference: US20210130436A1 (published 2021)
Values belong to the binder of their own block, whether it stands above or below them.

How the values were obtained:
human PD-L1 [1] = molecular target: T1, human PD-L1 (human, UniProt Q9NZQ7 19-290); experiment: flow cytometry, CHO cells stably expressing huPD-L1, 33.3 nM Fc fusion, PE anti-human Fc
T1 construct: whole, on cells; CHO cells stably expressing huPD-L1; also called huPD-L1

human CTLA-4 [2] = molecular target: T2, human CTLA-4 (human, UniProt P16410 36-223); experiment: flow cytometry, CHO cells stably expressing huCTLA-4, 33.3 nM Fc fusion, PE anti-human Fc
T2 construct: whole, on cells; CHO cells stably expressing huCTLA4; also called huCTLA4

[3] = molecular target: T3, human CTLA4 (full-length, expressed on CHO cells) (human, UniProt P16410 36-223); experiment: flow cytometry, CHO cells expressing huCTLA4, PE anti-human Fc
T3 construct: also called huCTLA4
T3 sequence (P16410 36-223): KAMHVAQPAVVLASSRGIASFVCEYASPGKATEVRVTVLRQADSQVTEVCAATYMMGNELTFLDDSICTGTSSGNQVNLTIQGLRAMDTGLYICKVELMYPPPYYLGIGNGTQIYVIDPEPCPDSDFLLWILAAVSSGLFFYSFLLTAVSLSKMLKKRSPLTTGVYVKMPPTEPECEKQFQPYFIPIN

[4] = molecular target: T4, CD28 (endogenously expressed on Jurkat/IL2 reporter cells) (human, UniProt P10747 19-220); experiment: flow cytometry, Jurkat/IL2 reporter cells (endogenous CD28), PE anti-human Fc
T4 construct: Endogenous CD28 of Jurkat cells; also called human CD28

[5] = molecular target: T5, CD28 on Jurkat/IL2 reporter cells (human, UniProt P10747 19-220); experiment: flow cytometry, Jurkat cells (CD28)
T5 construct: whole, on cells; Endogenous CD28 of Jurkat cells; also called Jurkats (CD28)

human CTLA4 on CHO cells = molecular target: T6, human CTLA4 on CHO cells (human, UniProt P16410 36-223); experiment: flow cytometry, CHO cells stably expressing CTLA4
T6 construct: whole, on cells; CHO cells stably expressing CTLA4; also called huCTLA4
T6 sequence (P16410 36-223): as above

[6] = molecular target: T7, human PD-L1 (full-length, expressed on CHO cells) (human, UniProt Q9NZQ7 19-290); experiment: flow cytometry, CHO cells expressing huPD-L1, PE anti-human Fc
T7 construct: also called huPD-L1; CD274
T7 sequence (Q9NZQ7 19-290): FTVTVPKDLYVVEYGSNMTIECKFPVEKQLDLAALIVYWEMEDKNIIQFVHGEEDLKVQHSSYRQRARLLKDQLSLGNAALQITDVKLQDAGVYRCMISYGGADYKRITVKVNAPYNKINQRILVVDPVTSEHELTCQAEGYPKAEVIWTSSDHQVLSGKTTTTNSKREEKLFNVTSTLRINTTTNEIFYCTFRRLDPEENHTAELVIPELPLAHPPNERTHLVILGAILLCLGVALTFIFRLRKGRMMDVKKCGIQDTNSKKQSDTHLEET

[7] = molecular target: T4, CD28 (endogenously expressed on …); experiment: flow cytometry MFI at 33.3 nM relative to WT CD80 ECD-Fc (R&D), Jurkat cells
[8] = molecular target: T7, human PD-L1 (full-length, expressed on …); experiment: flow cytometry MFI at 33.3 nM relative to WT CD80 ECD-Fc (R&D), CHO/huPD-L1 cells
[9] = molecular target: T7, human PD-L1 (full-length, expressed on …); experiment: flow cytometry, MFI on CHO/huPD-L1 cells over MFI on Jurkat (CD28) cells, 33.3 nM
human PD-L1 on CHO cells = molecular target: T8, human PD-L1 on CHO cells (human, UniProt Q9NZQ7 19-290); experiment: flow cytometry, CHO cells stably expressing PD-L1
T8 construct: whole, on cells; CHO cells stably expressing PD-L1; also called huPD-L1
T8 sequence (Q9NZQ7 19-290): as above

[10] = molecular target: T9, human PD-L1 expressed on CHO cells (human, UniProt Q9NZQ7 19-290); experiment: flow cytometry, CHO cells stably expressing PD-L1, Fc fusion at 33.3 nM
T9 construct: whole, on cells; Target on CHO cells stably expressing PD-L1; also called huPD-L1
T9 sequence (Q9NZQ7 19-290): as above

human CD28 = human CD28 (human, UniProt P10747 19-220); experiment: flow cytometry, Jurkat cells (CD28)
human PD-L1 [11] = molecular target: T10, human PD-L1 (human, UniProt Q9NZQ7 19-290); experiment: flow cytometry, CHO cells stably expressing PD-L1
T10 construct: also called huPD-L1; CD274

human CTLA-4 [12] = molecular target: T11, human CTLA-4 (human, UniProt P16410 36-223); experiment: flow cytometry, CHO cells stably expressing CTLA4
T11 construct: also called huCTLA4

B2: variant CD80 IgV-Fc A26E/E35D/M43I/M47L/L85Q/K86E/R94W (Fc fusion, not shown: a dimerising Fc or GST)
chain: VIHVTKEVKEVATLSCGHNVSVEELEQTRIYWQKDKKMVLTMISGDLNIWPEYKNRTIFDITNNLSIVILALRPSDEGTYECVVQEYEKDAFKWEHLAEVTLSVKAD
MFI at 33.3 nM [3]: 2950 MFI
MFI at 33.3 nM [4]: 314 MFI

B4: variant CD80 IgV-Fc Q33L/E35D/M47I (Fc fusion, not shown: a dimerising Fc or GST)
chain: VIHVTKEVKEVATLSCGHNVSVEELAQTRIYWLKDKKMVLTMMSGDINIWPEYKNRTIFDITNNLSIVILALRPSDEGTYECVVLKYEKDAFKREHLAEVTLSVKAD
MFI at 33.3 nM [6]: 37400 MFI
Fold change to WT [7]: 0.04 fold
MFI at 33.3 nM [4]: 282 MFI
Fold change to WT [8]: 4.7 fold
Ratio of PDL1:CD28 [9]: 132 ratio

B7: CD80 IgV-Fc V22D/E24D/E35D/M47L/V68M (Fc fusion, not shown: a dimerising Fc or GST)
chain: VIHVTKEVKEVATLSCGHNVSDEDLAQTRIYWQKDKKMVLTMMSGDLNIWPEYKNRTIFDITNNLSIMILALRPSDEGTYECVVLKYEKDAFKREHLAEVTLSVKAD
MFI at 33.3 nM (human CD28): 1250 MFI
MFI at 33.3 nM (human PD-L1 [11]): 15400 MFI

B9: variant CD80 IgV-Fc E35D/M47L/A71G (Fc fusion, not shown: a dimerising Fc or GST)
chain: VIHVTKEVKEVATLSCGHNVSVEELAQTRIYWQKDKKMVLTMMSGDLNIWPEYKNRTIFDITNNLSIVILGLRPSDEGTYECVVLKYEKDAFKREHLAEVTLSVKAD
MFI at 33.3 nM (human CTLA4 on CHO cells): 20600 MFI
MFI at 33.3 nM (human PD-L1 on CHO cells): 6640 MFI

B10: CD80 IgV-Fc V22D/E24D/E35D/M47V/V68M (Fc fusion, not shown: a dimerising Fc or GST)
chain: VIHVTKEVKEVATLSCGHNVSDEDLAQTRIYWQKDKKMVLTMMSGDVNIWPEYKNRTIFDITNNLSIMILALRPSDEGTYECVVLKYEKDAFKREHLAEVTLSVKAD
MFI at 33.3 nM (human CD28): 191 MFI
MFI at 33.3 nM (human CTLA-4 [12]): 16900 MFI

Results, then the binder that gave them:

MFI at 33.3 nM (human PD-L1 [1]): 55400 MFI
MFI at 33.3 nM (human CTLA-4 [2]): 13700 MFI
B1: variant CD80 IgV-Fc (inert) H18V/A26P/E35D/M47V/V68L/A71G (Fc fusion)
chain: VIHVTKEVKEVATLSCGVNVSVEELPQTRIYWQKDKKMVLTMMSGDVNIWPEYKNRTIFDITNNLSILILGLRPSDEGTYECVVLKYEKDAFKREHLAEVTLSVKAD
notes: not shown: inert human IgG1 Fc

MFI at 33.3 nM [5]: 23.7 MFI
MFI at 33.3 nM (human CTLA4 on CHO cells): 23300 MFI
B3: variant CD80 IgV-Fc E35D/M47V/L85M/R94Q (Fc fusion, not shown: a dimerising Fc or GST)
chain: VIHVTKEVKEVATLSCGHNVSVEELAQTRIYWQKDKKMVLTMMSGDVNIWPEYKNRTIFDITNNLSIVILALRPSDEGTYECVVMKYEKDAFKQEHLAEVTLSVKAD

MFI at 33.3 nM (human CTLA4 on CHO cells): 24600 MFI
MFI at 33.3 nM (human PD-L1 on CHO cells): 4880 MFI
B5: variant CD80 IgV-Fc E35D/M43I/M47L/L85M (Fc fusion, not shown: a dimerising Fc or GST)
chain: VIHVTKEVKEVATLSCGHNVSVEELAQTRIYWQKDKKMVLTMISGDLNIWPEYKNRTIFDITNNLSIVILALRPSDEGTYECVVMKYEKDAFKREHLAEVTLSVKAD

MFI at 33.3 nM [10]: 16600 MFI
B6: CD80 E35D/M47V/V68M IgV-Fc (Fc fusion, not shown: small tags and cut ends; a dimerising Fc or GST)
chain: VIHVTKEVKEVATLSCGHNVSVEELAQTRIYWQKDKKMVLTMMSGDVNIWPEYKNRTIFDITNNLSIMILALRPSDEGTYECVVLKYEKDAFKREHLAEVTLSVKAD

MFI at 33.3 nM (human PD-L1 [1]): 29300 MFI
MFI at 33.3 nM (human CTLA-4 [2]): 17300 MFI
B8: variant CD80 IgV-Fc (inert) H18R/A26P/E35D/D46N/M47V/V68M/A71G/D90P (Fc fusion)
chain: VIHVTKEVKEVATLSCGRNVSVEELPQTRIYWQKDKKMVLTMMSGNVNIWPEYKNRTIFDITNNLSIMILGLRPSDEGTYECVVLKYEKPAFKREHLAEVTLSVKAD
notes: as for B1

MFI at 33.3 nM [3]: 28900 MFI
MFI at 33.3 nM [6]: 62100 MFI
B11: variant CD80 IgV-Fc Q33L/E35D/M47V/T79A (Fc fusion, not shown: a dimerising Fc or GST)
chain: VIHVTKEVKEVATLSCGHNVSVEELAQTRIYWLKDKKMVLTMMSGDVNIWPEYKNRTIFDITNNLSIVILALRPSDEGAYECVVLKYEKDAFKREHLAEVTLSVKAD

MFI at 33.3 nM [3]: 47600 MFI
MFI at 33.3 nM [6]: 47900 MFI
B12: variant CD80 IgV-Fc Q33L/E35D/M47V (Fc fusion, not shown: a dimerising Fc or GST)
chain: VIHVTKEVKEVATLSCGHNVSVEELAQTRIYWLKDKKMVLTMMSGDVNIWPEYKNRTIFDITNNLSIVILALRPSDEGTYECVVLKYEKDAFKREHLAEVTLSVKAD
